Measurements from the RNAGym collection of RNA variant scans (doi:10.7554/elife.90254).

B1: LINE1-mini (parent)
chain: GGCAGAGCUCAACACAGCGUGGCAAAGUGGCUGUGGCUAGACUGCC

Variants of: B1
Test: self-cleavage, relative activity (ratio to wild type); higher = more cleavage; in vitro, sequencing; the parent is a self-cleaving ribozyme

Variant	self-cleavage
GGCAGAGCUCAACAAAGCGUGGGAAAGUGGCUGUGGCUAGACUGCC [C15A C23G]	0.05
GUCAGAGCUCAACACAGCGUGGCAAAGUGGCUGUGGCUAGAAUGCC [G2U C42A]	0.06
GGCAGAGCUCAACACAGCGUGGCCAAGUGGCUGAGGCUAGACUGCC [A24C U34A]	0.07
GGCUGAGCUCAACACAGCGUGGCAAAGUGGAUGUGGCUAGACUGCC [A4U C31A]	0.05
GGCAGAGGUCAACAUAGCGUGGCAAAGUGGCUGUGGCUAGACUGCC [C8G C15U]	0.1
GGCAGAUCUCAACACAGCGUGGAAAAGUGGCUGUGGCUAGACUGCC [G7U C23A]	0.06
GGCAGAGCUCAACACAGCGUGUAAAAGUGGCUGUGGCUAGACUGCC [G22U C23A]	1.25
GGCUGAGCUCAACACAGCGUGGCAAAGUGGCUGUGGCUUGACUGCC [A4U A39U]	0.11
GGCAGAGCUCAACACAGCGUGGCAAGGUGGCUGUGGCUAGUCUGCC [A26G A41U]	0.54
GGCAGAGCUCAACACAGCGUGGCAAAGUGGAUGUGGCUUGACUGCC [C31A A39U]	0.11
GGCAGAGCUCAACACAGCGUGGCGAAGUGGCUGUGGCUAGAGUGCC [A24G C42G]	0.06
GGCAGAGCUCAACACAGCGUGACAAAGUUGCUGUGGCUAGACUGCC [G22A G29U]	0.65
GGCAGAGCUCAACACUGCCUGGCAAAGUGGCUGUGGCUAGACUGCC [A16U G19C]	0.6
GGCAGAGCUCAACAAAGCGUGGCAAAGUGGCUGUGGCUAGACUUCC [C15A G44U]	0.04
GGUAGAGCUCGACACAGCGUGGCAAAGUGGCUGUGGCUAGACUGCC [C3U A11G]	0.03
GGCAGAGCUCAACACAGCGUGUCAAAGUGGCUGUGGCUUGACUGCC [G22U A39U]	1
GGCAGAGCUCAACACAGCGUGACAAAGUGGCUGUGGCUAGUCUGCC [G22A A41U]	0.66
GGCAGAGCUCUACACAGCGUGGCCAAGUGGCUGUGGCUAGACUGCC [A11U A24C]	0.15
GGCAGAGCUCAACACAGCGUGGCAAAGUGGCUGUGGCCAGUCUGCC [U38C A41U]	0.13
GGCAGAGCUCAAGACAGCGUGGCAAAGUAGCUGUGGCUAGACUGCC [C13G G29A]	0.19
AGCAGAGCUCAACACAGCGUGGCAAAGUGGCUGUGGCUAGACUGGC [G1A C45G]	0.34
GGCAGAGCUCAACACAGCGUGGCAAAGAGGUUGUGGCUAGACUGCC [U28A C31U]	0.54
GGCAGAGCUCAAUACAGCGUGGCAAAGUGGCUGUGGCUGGACUGCC [C13U A39G]	0.11

Variant	self-cleavage
GGCAGAGCUCAAGACAGCGUGGCAAAGUGGCUGUGGCCAGACUGCC [C13G U38C]	0.41
GGCAGAGCUCAACACAGCGUGGCAAAGUGGCUGAGGCUUGACUGCC [U34A A39U]	0.06
GGCACAGCUCACCACAGCGUGGCAAAGUGGCUGUGGCUAGACUGCC [G5C A12C]	0.04
GGCAGAGCUCAACACAGCGUGGCAAAGUGGCUGUUGCUACACUGCC [G35U G40C]	0.06
GGCAGAGCUCAACACAGCGUGGCAAAGUGGCUCUGGCUAGACUGCG [G33C C46G]	0.05
GGCAGAGCUCAACACAGCGUGGCAAAAUGGCUGCGGCUAGACUGCC [G27A U34C]	0.13
GGCAGAGCUCAACACAGUGUGGCAAAGCGGCUGUGGCUAGACUGCC [C18U U28C]	1.2
GGCAGAGCUCAACACAGCGUGGCAAACUGGCUGUGGCUAGACCGCC [G27C U43C]	0.07
GGCAGAGAUCAACACAGGGUGGCAAAGUGGCUGUGGCUAGACUGCC [C8A C18G]	0.15
GGCAGAGCUCAACACAGCGUGGCAAAGUGGCUUUGGCUAGACAGCC [G33U U43A]	0.12
GGCAGAGCUCAACACAGCGUGGCAAAGUGGUUGAGGCUAGACUGCC [C31U U34A]	0.06
GGCAGAGCUUAACACAGCGUGGCAAAGUGGAUGUGGCUAGACUGCC [C10U C31A]	0.13
GGCAGAGCUCAACACAGCGUGGCAAAGUGGCUAUGGUUAGACUGCC [G33A C37U]	0.04
UGCAGAGCUCAACACAGCGUGGCAAACUGGCUGUGGCUAGACUGCC [G1U G27C]	0.27
GGCAGAGCUCAACACAGCGUGGCAAAGUGGCUGUGGCUGGACUUCC [A39G G44U]	0.22
GGCAGUGCUCAACACAGCGUGGCAAAGUAGCUGUGGCUAGACUGCC [A6U G29A]	0.79
GGCAGAGCUCAACACAGCGUGGCAAAGUGGCUUUGUCUAGACUGCC [G33U G36U]	0.05
UGCAGAGCUCAACACAGCGCGGCAAAGUGGCUGUGGCUAGACUGCC [G1U U20C]	0.22
GGCAGAGCUGAACACAGCGUGGCAAAGUGGCUGUGGCGAGACUGCC [C10G U38G]	0.03
GGCAGAGCUCAAAACAGCGUGGCAAAGUGGCUGUGGCUUGACUGCC [C13A A39U]	0.23
CGCAGCGCUCAACACAGCGUGGCAAAGUGGCUGUGGCUAGACUGCC [G1C A6C]	0.04
GGCAGAGCUAAACACAGCGUGGCAAAGUGGCUGUGGCUACACUGCC [C10A G40C]	0.02
GGCAGAGCUCAACACAGCGUGGCAAAGUGGCUAUGGCUAGACUACC [G33A G44A]	0.1

Variant	self-cleavage
GGCAGCGCUCAAAACAGCGUGGCAAAGUGGCUGUGGCUAGACUGCC [A6C C13A]	0.12
GGCAGAGCUCAACACAUCGUUGCAAAGUGGCUGUGGCUAGACUGCC [G17U G21U]	0.36
GGCAGAGCUCAACACACUGUGGCAAAGUGGCUGUGGCUAGACUGCC [G17C C18U]	0.08
GGCAGAGCUCAACACAGCGUGGGAAAGUGUCUGUGGCUAGACUGCC [C23G G30U]	0.75
GGCAGAGCUCAACACAGGGUGGCAAAGUGGCUGUGGCUAGACUCCC [C18G G44C]	0.1
GGCAGAGCUCAACACAGCGUGGCAAAGUGGCUGUGGCUAGAUAGCC [C42U U43A]	0.12
GGCAGAGCUCCACACAGCGUGGCAAAGUGGCUGUGGCUAGACUGUC [A11C C45U]	0.12
GGCAGAGCUCUACACAGCGUGGCAAAGUGGCUGUGGCUAGACUGCU [A11U C46U]	0.12
GGGAGAGCUCAACACAGCGUGGCAAAGUAGCUGUGGCUAGACUGCC [C3G G29A]	0.38
GGCAGAGCUCAACACAGCGUGGCAAAGUGGGUGUGGCAAGACUGCC [C31G U38A]	0.09
CGCAGAGCUCAACACAGCGUGGCAAAGUGGCUUUGGCUAGACUGCC [G1C G33U]	0.04
GGCAGAGCCCAACACAGCGUGGCAAAGUGGCUGUGGCUAGACUGCG [U9C C46G]	0.03
GGCAGAGCUCAACACAUCGUGGCAAAGUGGCUGUGGCAAGACUGCC [G17U U38A]	0.17
GGCAGAGCUCAACACAGCGUGGCAUAGUGGCUGUGGCUAGACUUCC [A25U G44U]	0.4
GGCAGACCUCAACACAGCGUGGCAAAGUGUCUGUGGCUAGACUGCC [G7C G30U]	0.1
GGCAGAGCUCAACACAGCGUGGCAAAGAGGCUGUGGCUAGACUGAC [U28A C45A]	0.29
GGCAGAGCUCAACACAGCUUGGCAAAGUGACUGUGGCUAGACUGCC [G19U G30A]	0.96
GGCAGAGCUCAACACAGCGUGGCAAAGUGGCCGUUGCUAGACUGCC [U32C G35U]	0.12
GGCAGAGCUCAACACAGCGUGGCAAAGUAGCGGUGGCUAGACUGCC [G29A U32G]	0.46
GGCAGAGCUCGACACAGCAUGGCAAAGUGGCUGUGGCUAGACUGCC [A11G G19A]	0.04
GGCAGAACUCAACACAGCUUGGCAAAGUGGCUGUGGCUAGACUGCC [G7A G19U]	0.11
UACAGAGCUCAACACAGCGUGGCAAAGUGGCUGUGGCUAGACUGCC [G1U G2A]	0.38
GGCGGAGCUCAACACAGCGUGGCAAAGUGGCUGGGGCUAGACUGCC [A4G U34G]	0.08

Variant	self-cleavage
GGCAGAGCUCAACUCAGCGUGGCAAAGUGGCUGUGGCUAGACUGUC [A14U C45U]	0.36
GGCAGAGCUCAACACAGCGUUGCAAAGUGGCUGUGGCUAGAUUGCC [G21U C42U]	0.53
GGCAGAGCUCAACACAGCGUGGCAAAGUGGGUGUGGCUAGACUCCC [C31G G44C]	0.05
GGCAGAGCUCAACACAUCGUGGCAAAGUGGCUGUGGCUAGAUUGCC [G17U C42U]	0.06
GGCAGAGCUCAAAACAGCGUGGCAAAGUGGCUGUGGCCAGACUGCC [C13A U38C]	0.1
GGCAGAGCUCAACACAGCGUGGCAAAGUGACUGUUGCUAGACUGCC [G30A G35U]	0.09
GGCAGAGCUCAACACAGCGUGGCACAGCGGCUGUGGCUAGACUGCC [A25C U28C]	0.44
GGCAGAGCUUAACACAGCGUGGCAAAGUGGCUGUGGCUAGACCGCC [C10U U43C]	0.03
GGCAGAGCUCAACACAGCGUGGCAAAGUGGCUGCGGAUAGACUGCC [U34C C37A]	0.09
GCCAGAGCUCAACACAGCGUGGCAAAGCGGCUGUGGCUAGACUGCC [G2C U28C]	0.09
GGCAGAGCGCAACACAGCGUGGCAAAGUGGCUGUGGCUAGACUGUC [U9G C45U]	0.16
GGAAGAGCUCAACACAGCGUGGCAAAGUCGCUGUGGCUAGACUGCC [C3A G29C]	0.25
CGUAGAGCUCAACACAGCGUGGCAAAGUGGCUGUGGCUAGACUGCC [G1C C3U]	0.18
GGCACAGCUCAACACAGCGUGGCAAAGUGGCCGUGGCUAGACUGCC [G5C U32C]	0.1
GGCAGAGCUCAACACAGCGUGGCAAAGUUGCUGUGGCUAGAAUGCC [G29U C42A]	0.14
GGCAGAGCUCAACACAGCGUGGCAAAGUGGCAGUGGCUAGCCUGCC [U32A A41C]	0.07
GGCAGAGCUUAACACACCGUGGCAAAGUGGCUGUGGCUAGACUGCC [C10U G17C]	0.61
UGCAGAGCUCAACACAGCGUGGCAAAGUGGCUGAGGCUAGACUGCC [G1U U34A]	0.05
GGCAGAGCUCAACUCAGCGUGGCAAAGUGGCUGUGGAUAGACUGCC [A14U C37A]	0.08
GGCAGAGCACAACACAGCGUGGCAAAGUGGCAGUGGCUAGACUGCC [U9A U32A]	0.11
GGCAGAGCUCAACACACCGUGGCAACGUGGCUGUGGCUAGACUGCC [G17C A26C]	1.18
GGCAGAGCUCAACACAGCGUGACAAAGUGGCUGUGGCUAGACUGCA [G22A C46A]	1.03
GGCAGAGCUCAACACAGCGUGGCAAAGUGCAUGUGGCUAGACUGCC [G30C C31A]	0.75

Variant	self-cleavage
GGCAGAGCUCAACACAGCGGGGCAAAGUGGCUGUGGCUAGACUGCA [U20G C46A]	0.78
GGCAGAGCUCGACACGGCGUGGCAAAGUGGCUGUGGCUAGACUGCC [A11G A16G]	0.02
GGCAGAGCUCAACACAGCGUGGCAAAUUGGCUGUGGCUAGACUGCU [G27U C46U]	1.05
GGCAGACCUCAACACAGCGUGGCAAAGUGGCUGUGGCUAGAAUGCC [G7C C42A]	0.08
GGCAGAGCUCAACACAGCUUGGCAAAGUGGCUGUGGCUAGACUUCC [G19U G44U]	0.28
GGCAGAGCUCAACACAGCGUGCCAAAUUGGCUGUGGCUAGACUGCC [G22C G27U]	0.53
GGCAGAGAUCAACACAGCGUGGCAAAGUGGCUGUCGCUAGACUGCC [C8A G35C]	0.16
GGCAGCGCUCAACAGAGCGUGGCAAAGUGGCUGUGGCUAGACUGCC [A6C C15G]	0.04
GGCAGAGCUCAACACAGCGUGGCAAAGUGGCUGUGGCCUGACUGCC [U38C A39U]	0.7
GGCAGAGCUCAACACAGCGAGGCAAAGUGACUGUGGCUAGACUGCC [U20A G30A]	0.62
GGCAGAGCUCAAUACAGCGUGGCAAAGUGGCUGUGGUUAGACUGCC [C13U C37U]	0.11
GGCAGAGCUCUACACAGCGUGGCAAAGUGGGUGUGGCUAGACUGCC [A11U C31G]	0.03
AGCAGAGCUCAACACAGCGUGGCAAAGUGGCUGUGGCCAGACUGCC [G1A U38C]	0.84
GGCAGAGCUCAACACAGCGUGGCAAAGUGGCUUUGGCUAGACUGCA [G33U C46A]	0.07
GGCAGAGGUCAACACACCGUGGCAAAGUGGCUGUGGCUAGACUGCC [C8G G17C]	0.04
GGCAGAGCUCAACAUAGAGUGGCAAAGUGGCUGUGGCUAGACUGCC [C15U C18A]	0.09
GGCAGAGCUCAACAGAGCAUGGCAAAGUGGCUGUGGCUAGACUGCC [C15G G19A]	0.07
GGCAGAGCUCAACACAGCGUGGCAAAGUGGCUGUGGCUCUACUGCC [A39C G40U]	0.11
GGCAGAGCUCAACACAGCGUGGCAAAGUGGUUGUGGCUAGGCUGCC [C31U A41G]	0.04
GGCAGAGCUCAACACAGCUUGGCAAAGUGGCUGUGGCUAGACUGCU [G19U C46U]	0.86
